How the values were obtained:
HLA-B*18:01 = assay: IEDB peptide-MHC binding, purified MHC/competitive/radioactivity; filed as Kd, often an IC50 or EC50 that approximates it; ≥ and ≤ were set here for values at or beyond the usual limits of such assays
HLA-B*44:02 = assay: as above
HLA-B*45:01 = assay: as above
HLA-B*40:01 = assay: as above
HLA-B*44:03 = assay: as above
HLA-B*40:02 = assay: as above
HLA-B*15:01 [1] = assay: IEDB peptide-MHC binding, purified MHC/competitive/fluorescence; filed as Kd, often an IC50 or EC50 that approximates it; ≥ and ≤ were set here for values at or beyond the usual limits of such assays
HLA-A*26:01 = assay: as above
HLA-A*02:01 [2] = assay: IEDB peptide-MHC binding, purified MHC/competitive/radioactivity; filed as Kd, often an IC50 or EC50 that approximates it; ≥ and ≤ were set here for values at or beyond the usual limits of such assays
HLA-A*68:02 = assay: as above
HLA-A*02:06 = assay: as above
HLA-A*02:03 = assay: as above
HLA-A*02:02 = assay: as above; details: source organism: Trypanosoma cruzi
HLA-B*15:01 [3] = assay: as above
HLA-A*02:01 [4] = assay: IEDB peptide-MHC binding, purified MHC/competitive/fluorescence; filed as Kd, often an IC50 or EC50 that approximates it; ≥ and ≤ were set here for values at or beyond the usual limits of such assays; details: source organism: Lassa virus Josiah
HLA-A*32:01 = assay: IEDB peptide-MHC binding, purified MHC/competitive/radioactivity; filed as Kd, often an IC50 or EC50 that approximates it; ≥ and ≤ were set here for values at or beyond the usual limits of such assays
HLA-B*08:01 = assay: as above; details: source organism: Dengue virus 3 Martinique/1243/1999
[5] = source organism: Lassa virus Josiah
[6] = source organism: Mammarenavirus machupoense
[7] = source organism: SARS coronavirus Tor2
[8] = source organism: Mammarenavirus juninense
[9] = source organism: Trypanosoma cruzi
[10] = source organism: Lymphocytic choriomeningitis virus (strain Armstrong)
[11] = source organism: Dengue virus 3 Martinique/1243/1999
[12] = source organism: Mammarenavirus lassaense
[13] = source organism: Vaccinia virus WR

Question: Which results are given for AEAQMSIQLI?
Answer: Kd (HLA-B*18:01; [5]): ≥ 23500 nM; Kd (HLA-B*44:02; [5]): 34.6 nM; Kd (HLA-B*45:01; [5]): 78.9 nM; Kd (HLA-B*40:01; [5]): 1300 nM; Kd (HLA-B*44:03; [5]): 69.1 nM; Kd (HLA-B*40:02; [5]): 53.9 nM

Question: How did the Kd (HLA-B*15:01 [1]; source organism: Chloroflexus aurantiacus J-10-fl) turn out when AVDLSHFL was run?
Answer: ≥ 20000 nM

Question: How did the Kd (HLA-B*18:01; [6]) turn out when CEEGKLCYLT was run?
Answer: 14100 nM

Question: And the Kd (HLA-B*44:02; [6])?
Answer: 13200 nM

Question: And the Kd (HLA-B*45:01; [6])?
Answer: 1600 nM

Question: What about the Kd (HLA-B*40:01; [6]) of the same sequence?
Answer: ≥ 69500 nM

Question: What about the Kd (HLA-B*44:03; [6]) of the same sequence?
Answer: 16200 nM

Question: What about the Kd (HLA-B*40:02; [6]) of the same sequence?
Answer: 8090 nM

Question: For CELYHYQECV, which Kd (HLA-B*18:01; [7]) is on record?
Answer: ≥ 36200 nM

Question: And the Kd (HLA-B*44:02; [7])?
Answer: 7850 nM

Question: What about the Kd (HLA-B*45:01; [7]) of the same sequence?
Answer: 425 nM

Question: And the Kd (HLA-B*40:01; [7])?
Answer: 1720 nM

Question: What about the Kd (HLA-B*44:03; [7]) of the same sequence?
Answer: 4200 nM

Question: And the Kd (HLA-B*40:02; [7])?
Answer: 8200 nM

Question: Which Kd (HLA-A*26:01; source organism: Escherichia coli O139:H28 str. E24377A) does the source give for DICSGLQQL here?
Answer: ≥ 20000 nM

Question: What does the source list for EELIKLRFWF?
Answer: Kd (HLA-B*18:01; [8]): 748 nM; Kd (HLA-B*44:02; [8]): 680 nM; Kd (HLA-B*45:01; [8]): 9880 nM; Kd (HLA-B*40:01; [8]): ≥ 36700 nM; Kd (HLA-B*44:03; [8]): 132 nM; Kd (HLA-B*40:02; [8]): 10400 nM

Question: EEVAIILASF was tested. Which Kd (HLA-B*18:01; [7]) did it give?
Answer: 108 nM

Question: What about the Kd (HLA-B*44:02; [7]) of the same sequence?
Answer: 77.6 nM

Question: What about the Kd (HLA-B*45:01; [7]) of the same sequence?
Answer: 1390 nM

Question: What about the Kd (HLA-B*40:01; [7]) of the same sequence?
Answer: 3430 nM

Question: What about the Kd (HLA-B*44:03; [7]) of the same sequence?
Answer: 19.2 nM

Question: And the Kd (HLA-B*40:02; [7])?
Answer: 406 nM

Question: For EISSIISLM, which Kd (HLA-A*26:01; source organism: Bacillus anthracis str. A2012) is on record?
Answer: 9.8 nM

Question: ELEALKTEL was tested. Which Kd (HLA-A*02:01 [2]; source organism: Homo sapiens) did it give?
Answer: ≥ 54300 nM

Question: What about the Kd (HLA-A*68:02; source organism: Homo sapiens) of the same sequence?
Answer: 15900 nM

Question: And the Kd (HLA-A*02:06; source organism: Homo sapiens)?
Answer: ≥ 64600 nM

Question: How did the Kd (HLA-A*02:01 [2]; source organism: Homo sapiens) turn out when ELRLLIHQSL was run?
Answer: 1510 nM

Question: And the Kd (HLA-A*02:03; source organism: Homo sapiens)?
Answer: 1580 nM

Question: And the Kd (HLA-A*68:02; source organism: Homo sapiens)?
Answer: 1130 nM

Question: Which results are given for EVLRPTTLV?
Answer: Kd (HLA-A*02:02): 6570 nM; Kd (HLA-A*02:01 [2]; [9]): 13700 nM; Kd (HLA-A*02:03; [9]): 5480 nM; Kd (HLA-A*68:02; [9]): 6.8 nM; Kd (HLA-A*02:06; [9]): 1460 nM

Question: For FENAILSMT, which Kd (HLA-B*18:01; [10]) is on record?
Answer: 3300 nM

Question: What about the Kd (HLA-B*44:02; [10]) of the same sequence?
Answer: 6480 nM

Question: And the Kd (HLA-B*45:01; [10])?
Answer: 1820 nM

Question: What about the Kd (HLA-B*40:01; [10]) of the same sequence?
Answer: 18400 nM

Question: And the Kd (HLA-B*44:03; [10])?
Answer: 6370 nM

Question: What about the Kd (HLA-B*40:02; [10]) of the same sequence?
Answer: 32.3 nM

Question: With FENAILSMTI as the sequence, how does the Kd (HLA-B*18:01; [10]) read?
Answer: 126 nM

Question: What about the Kd (HLA-B*44:02; [10]) of the same sequence?
Answer: 237 nM

Question: And the Kd (HLA-B*45:01; [10])?
Answer: 3020 nM

Question: And the Kd (HLA-B*40:01; [10])?
Answer: 1450 nM

Question: And the Kd (HLA-B*44:03; [10])?
Answer: 388 nM

Question: And the Kd (HLA-B*40:02; [10])?
Answer: 6.31 nM

Question: FERDISNVPF was tested. Which Kd (HLA-B*18:01; [7]) did it give?
Answer: 32 nM

Question: What about the Kd (HLA-B*44:02; [7]) of the same sequence?
Answer: 578 nM

Question: What about the Kd (HLA-B*45:01; [7]) of the same sequence?
Answer: 6400 nM

Question: What about the Kd (HLA-B*40:01; [7]) of the same sequence?
Answer: 20.3 nM

Question: And the Kd (HLA-B*44:03; [7])?
Answer: 629 nM

Question: What about the Kd (HLA-B*40:02; [7]) of the same sequence?
Answer: 1950 nM

Question: How did the Kd (HLA-B*15:01 [3]; source organism: Dengue virus 2 Jamaica/1409/1983) turn out when FQRALIFILL was run?
Answer: 117 nM

Question: For GDYFVLTSHT, which Kd (HLA-B*18:01; [7]) is on record?
Answer: ≥ 70500 nM

Question: What about the Kd (HLA-B*44:02; [7]) of the same sequence?
Answer: ≥ 50900 nM

Question: And the Kd (HLA-B*45:01; [7])?
Answer: ≥ 70000 nM

Question: What about the Kd (HLA-B*40:01; [7]) of the same sequence?
Answer: ≥ 69600 nM

Question: And the Kd (HLA-B*44:03; [7])?
Answer: ≥ 22600 nM

Question: What about the Kd (HLA-B*40:02; [7]) of the same sequence?
Answer: ≥ 37700 nM

Question: How did the Kd (HLA-A*02:01 [4]) turn out when GILKSILKV was run?
Answer: 39.1 nM

Question: GLSRPLLRL was tested. Which Kd (HLA-A*02:01 [2]; source organism: Hepatitis B virus subtype ayw) did it give?
Answer: ≥ 5000 nM

Question: For ILRHSTAHL, which Kd (HLA-B*15:01 [1]; source organism: Bacillus anthracis str. A0488) is on record?
Answer: 142 nM

Question: With IQNSGGTSI as the sequence, how does the Kd (HLA-B*15:01 [3]; [11]) read?
Answer: 25.7 nM

Question: IVIGVGNSAL was tested. Which Kd (HLA-B*15:01 [3]; source organism: Dengue virus 4 Dominica/814669/1981) did it give?
Answer: 52.9 nM

Question: How did the Kd (HLA-B*18:01; [6]) turn out when KEKAPDVGVL was run?
Answer: ≥ 70400 nM

Question: And the Kd (HLA-B*44:02; [6])?
Answer: 2410 nM

Question: And the Kd (HLA-B*45:01; [6])?
Answer: ≥ 30900 nM

Question: What about the Kd (HLA-B*40:01; [6]) of the same sequence?
Answer: 1050 nM

Question: And the Kd (HLA-B*44:03; [6])?
Answer: ≥ 62100 nM

Question: And the Kd (HLA-B*40:02; [6])?
Answer: 64.9 nM

Question: What does the source list for KENLYIKSI?
Answer: Kd (HLA-B*18:01; [12]): ≥ 28800 nM; Kd (HLA-B*44:02; [12]): 232 nM; Kd (HLA-B*45:01; [12]): 2150 nM; Kd (HLA-B*40:01; [12]): 14200 nM; Kd (HLA-B*44:03; [12]): 118 nM; Kd (HLA-B*40:02; [12]): 19.1 nM

Question: KLHSGVDVF was tested. Which Kd (HLA-B*15:01 [3]; source organism: Dengue virus 4 Philippines/H241/1956) did it give?
Answer: 7.72 nM

Question: Which results are given for LEVKFNAPA?
Answer: Kd (HLA-B*18:01; [7]): 111 nM; Kd (HLA-B*44:02; [7]): ≥ 21300 nM; Kd (HLA-B*45:01; [7]): 4.46 nM; Kd (HLA-B*40:01; [7]): 5310 nM; Kd (HLA-B*44:03; [7]): 6010 nM; Kd (HLA-B*40:02; [7]): 9.33 nM

Question: Which Kd (HLA-B*15:01 [1]; source organism: Human immunodeficiency virus 1) does the source give for LGLNKIVRMY here?
Answer: 1960 nM

Question: How did the Kd (HLA-B*15:01 [3]; source organism: Variola virus) turn out when LLLSINSSF was run?
Answer: 0.883 nM

Question: What about the Kd (HLA-A*32:01; source organism: Variola virus) of the same sequence?
Answer: 2090 nM

Question: LLWFLTGTF was tested. Which Kd (HLA-B*15:01 [3]; [13]) did it give?
Answer: 0.776 nM

Question: What about the Kd (HLA-A*32:01; [13]) of the same sequence?
Answer: 93 nM

Question: LQWIASAIVL was tested. Which Kd (HLA-B*15:01 [3]; [11]) did it give?
Answer: 6.43 nM

Question: What about the Kd (HLA-B*08:01) of the same sequence?
Answer: 4970 nM

Question: What does the source list for LTFDYVVTF?
Answer: Kd (HLA-B*15:01 [3]; [13]): 2.45 nM; Kd (HLA-A*32:01; [13]): 17.2 nM

Source: the Immune Epitope Database (IEDB)
